This assay has as its target T1, 重组N蛋白 (新冠病毒 (SARS-CoV-2), UniProt P0DTC9 1-419).
T1 construct: also called 新冠病毒N蛋白
Briefly: indirect ELISA. (In general: In an ELISA, binding on a coated surface is turned into a signal by an enzyme label.)

Here are results for one molecule from CN114751980A (XIAMEN BOANG BIOTECHNOLOGY CO LTD, dated 2022).

B1: 单抗阻断剂A3-4 (antibody, V domains shown)
VH: EVQLEESGGGLVQPGGSRKLSCIASGIIFHNFGMHWIRQAPEKGLEWVAYISGLSRNISYADTVKGRFTISRDNPKNTLFLQMTSLRSEDTAMYYCSRGWAYDAAFWGQGTLVTVS
VL: DVVMTQTPLTLSVTIGQPASFSCKSSRSLLSSNGKIYLNWLLQRPGQSPKRLIYLVSKLDSGVPDRFTGSGSGTDFTLQINRVEAEDLGVYYCVQGTHFPLTFGAGTKLELKR
notes: also called 新冠病毒检测用单抗阻断剂
For the molecule B1, the binding result is recorded as “no binding”.
